Measured values taken from US20240117029A1 (Hoffmann-La Roche, published 2024).

B1: murine 11K2 (antibody, V domains shown)
VH: EVQLQQSGAELVKAGASVKLSCPASGLNIKDTYMHWVKQRPEQGLEWIGRIDPANGNTKFDPKFQGKATITADTSSNTAYLQLSSLTSEDTAVYYCARGVFGFFDYWGQGTTLTVSS
VL: DIQMTQSSSSFSVSLGDRVTITCKATEDIYNRLAWYQQKPGSAPRLLISGATSLETGVPSRFSGSGSGKDYTLSITSLQTEDVATYYCQQFWSAPYTFGGGTKLEIK
notes: also called 11K2m; X-0048
B2: 1G9 (antibody, V domains shown)
VH: QSLEESGGDLVKPGASLTLTCKASGIDFSLYSYMCWVRQAPGKGLEWIACVDAGASGSTYYASWAKGRFTISKTSSTTVTLQMTSLTAADTATYFCARGILYYTWPYPAGAIDAFDSWGPGTLVTVSS
VL: AYDMTQTPASVSEPVGGTVTIKCQASESISNYLSWYQQKPGQPPKLLIYKASTLASGVPSRFKGSGSGTEYTVTISGVQSDDAATYYCQQSYSSSNVFNTFGGGTEVVVK
notes: Generated as IgG1 wild type and IgG1 PGLALA with kappa light chain; also called CCL2-0010
B3: 1A4 (antibody, V domains shown)
VH: QSLEESGGDLVKPGASLTLTCTASELDFYWICWVRQAPGKGLEWIACIGAGSSGSTYYASWAKGRFTVSKTSSTTVTLQMTSLTAADTATYFCARTGTEFTYYSLWGPGTLVTVSS
VL: ALVMTQTPSSVSAAVGGTVTINCQASQSVYNNNMAWYQQKPGQPPKLLIYTASSLASGVPSHFRGSGSGTQFTLTISDLESDDAATYYCAGYKSYSNDEYGFGGGTEVVVK
notes: also called CCL2-0008
B4: CKLO02 IgG1 (bispecific antibody)
heavy 1: not shown
heavy 2: not shown
light 1: QVQLVQSGAEVKKPGSSVKVSCKASGLTISHTYMHWVRQAPGQGLEWMGRIDPDNHNTKFDPKFQGRVTITADTSTSTAYMELSSLRSEDTAVYYCARGVFGFFEHWGQGTTVTVSSASVAAPSVFIFPPSDEQLKSGTASVVCLLNNFYPREAKVQWKVDNALQSGNSQESVTEQDSKDSTYSLSSTLTLSKADYEKHKVYACEVTHQGLSSPVTKSFNRGEC
light 2: EIVLTQSPATLSLSPGERATLSCRASQHVSDAYLAWYQQKPGQAPRLLIYDASDRAEGVPARFSGSGSGTDFTLTISSLEPEDFAVYYCHQYIHLHSFTFGQGTKVEIKRTVAAPSVFIFPPSDRKLKSGTASVVCLLNNFYPREAKVQWKVDNALQSGNSQESVTEQDSKDSTYSLSSTLTLSKADYEKHKVYACEVTHQGLSSPVTKSFNRGEC
B5: CKLO2-SG1095 (bispecific antibody)
heavy 1: DIQMTQSPSSLSASVGDRVTITCKAFEDIYNRRAWYQQKPGKAPKLLIHGATSLEHGVPSRFSGSGSGTDYTLTISSLQPEDFATYYCQQFWSAPYTFGGGTKVEIKSSASTKGPSVFPLAPSSKSTSGGTAALGCLVKDYFPEPVTVSWNSGALTSGVHTFPAVLQSSGLYSLSSVVTVPSSSLGTQTYICNVNHKPSNTKVDKKVEPKSCDKTHTCPPCPAPELWNGPSVFLFPPKPKDTLMISRTPEVTCVVVDVSDEDPEVKFNWYVDGVEVHNAKTKPREELYNSTYRVVSVLTVLHRDWLNGKEYKCKVSNTALPKPIEKTISKAKGQRREPQVYTLPPCRDELTKNQVSLWCLVKGFYPSDIAVEWESNGQPENNYKTTPPVLDSDGSFFLYSKLTVDKSRWQQGNVFSCSVMHEALHAHYTRKELSLSP
heavy 2: not shown
light 1: QVQLVQSGAEVKKPGSSVKVSCKASGLTISHTYMHWVRQAPGQGLEWMGRIDPDNHNTKFDPKFQGRVTITADTSTSTAYMELSSLRSEDTAVYYCARGVFGFFEHWGQGTTVTVSSASVAAPSVFIFPPSDEQLKSGTASVVCLLNNFYPREAKVQWKVDNALQSGNSQESVTEQDSKDSTYSLSSTLTLSKADYEKHKVYACEVTHQGLSSPVTKSFNRGEC
light 2: EIVLTQSPATLSLSPGERATLSCRASQHVSDAYLAWYQQKPGQAPRLLIYDASDRAEGVPARFSGSGSGTDFTLTISSLEPEDFAVYYCHQYIHLHSFTFGQGTKVEIKRTVAAPSVFIFPPSDRKLKSGTASVVCLLNNFYPREAKVQWKVDNALQSGNSQESVTEQDSKDSTYSLSSTLTLSKADYEKHKVYACEVTHQGLSSPVTKSFNRGEC
B6: CKLO2-GG01 (bispecific antibody)
heavy 1: DIQMTQSPSSLSASVGDRVTITCKAFEDIYNRRAWYQQKPGKAPKLLIHGATSLEHGVPSRFSGSGSGTDYTLTISSLQPEDFATYYCQQFWSAPYTFGGGTKVEIKSSASTKGPSVFPLAPSSKSTSGGTAALGCLVKDYFPEPVTVSWNSGALTSGVHTFPAVLQSSGLYSLSSVVTVPSSSLGTQTYICNVNHKPSNTKVDKKVEPKSCDKTHTCPPCPAPEYLGGDSVFLFPPKPKDVLMISRTPEVTCVVIDVSHEDPEVKFNWYVDGVEVHNAKTKPREEQYNSTYRVVSVLPVLHRDWLNGKEYKCKVSNKALPKPIEKTISKAKGQRREPQVYTLPPCRDELTKNQVSLWCLVKGFYPSDIAVEWESNGQPENNYKTTPPVLDSDGSFFLYSKLTVDKSRWQQGNVFSCSVMHEALHAHYTRKELSLSP
heavy 2: not shown
light 1: QVQLVQSGAEVKKPGSSVKVSCKASGLTISHTYMHWVRQAPGQGLEWMGRIDPDNHNTKFDPKFQGRVTITADTSTSTAYMELSSLRSEDTAVYYCARGVFGFFEHWGQGTTVTVSSASVAAPSVFIFPPSDEQLKSGTASVVCLLNNFYPREAKVQWKVDNALQSGNSQESVTEQDSKDSTYSLSSTLTLSKADYEKHKVYACEVTHQGLSSPVTKSFNRGEC
light 2: EIVLTQSPATLSLSPGERATLSCRASQHVSDAYLAWYQQKPGQAPRLLIYDASDRAEGVPARFSGSGSGTDFTLTISSLEPEDFAVYYCHQYIHLHSFTFGQGTKVEIKRTVAAPSVFIFPPSDRKLKSGTASVVCLLNNFYPREAKVQWKVDNALQSGNSQESVTEQDSKDSTYSLSSTLTLSKADYEKHKVYACEVTHQGLSSPVTKSFNRGEC
B7: CKLO2-GG02 (bispecific antibody)
heavy 1: DIQMTQSPSSLSASVGDRVTITCKAFEDIYNRRAWYQQKPGKAPKLLIHGATSLEHGVPSRFSGSGSGTDYTLTISSLQPEDFATYYCQQFWSAPYTFGGGTKVEIKSSASTKGPSVFPLAPSSKSTSGGTAALGCLVKDYFPEPVTVSWNSGALTSGVHTFPAVLQSSGLYSLSSVVTVPSSSLGTQTYICNVNHKPSNTKVDKKVEPKSCDKTHTCPPCPAPEYLGGDSVFLFPPKPKDVLMISRTPEVTCVVIDVSHEDPEVKFNWYVDGVEVHNAKTKPREEQYNSTYRVVSVLPVLHRDWLNGKEYKCKVSNKALPKPIEKTISKAKGQRREPQVYTLPPCRDELTKNQVSLWCLVKGFYPSDIAVEWESNGQPENNYKTTPPVLDSDGSFFLYSKLTVDKSRWQQGNVFSCSVLHEALHAHTTRKELSLSP
heavy 2: not shown
light 1: QVQLVQSGAEVKKPGSSVKVSCKASGLTISHTYMHWVRQAPGQGLEWMGRIDPDNHNTKFDPKFQGRVTITADTSTSTAYMELSSLRSEDTAVYYCARGVFGFFEHWGQGTTVTVSSASVAAPSVFIFPPSDEQLKSGTASVVCLLNNFYPREAKVQWKVDNALQSGNSQESVTEQDSKDSTYSLSSTLTLSKADYEKHKVYACEVTHQGLSSPVTKSFNRGEC
light 2: EIVLTQSPATLSLSPGERATLSCRASQHVSDAYLAWYQQKPGQAPRLLIYDASDRAEGVPARFSGSGSGTDFTLTISSLEPEDFAVYYCHQYIHLHSFTFGQGTKVEIKRTVAAPSVFIFPPSDRKLKSGTASVVCLLNNFYPREAKVQWKVDNALQSGNSQESVTEQDSKDSTYSLSSTLTLSKADYEKHKVYACEVTHQGLSSPVTKSFNRGEC
B8: CKLO2-GG03/GG04 (bispecific antibody)
heavy 1: DIQMTQSPSSLSASVGDRVTITCKAFEDIYNRRAWYQQKPGKAPKLLIHGATSLEHGVPSRFSGSGSGTDYTLTISSLQPEDFATYYCQQFWSAPYTFGGGTKVEIKSSASTKGPSVFPLAPSSKSTSGGTAALGCLVKDYFPEPVTVSWNSGALTSGVHTFPAVLQSSGLYSLSSVVTVPSSSLGTQTYICNVNHKPSNTKVDKKVEPKSCDKTHTCPPCPAPEYLGGDSVFLFPPKPKDVLMISRTPEVTCVVIDVSHEDPEVKFNWYVDGVEVHNAKTKPREEQYNSTYRVVSVLPVLHRDWLNGKEYKCKVSNKALPKPIEKTISKAKGQRREPQVYTLPPCREEMTKNQVSLWCLVKGFYPSDIAVEWESNGQPENNYKTTPPVLDSDGSFFLYSKLTVDKSRWQQGNVFSCSVMHEALHAHYTRKELSLSP
heavy 2: not shown
light 1: QVQLVQSGAEVKKPGSSVKVSCKASGLTISHTYMHWVRQAPGQGLEWMGRIDPDNHNTKFDPKFQGRVTITADTSTSTAYMELSSLRSEDTAVYYCARGVFGFFEHWGQGTTVTVSSASVAAPSVFIFPPSDEQLKSGTASVVCLLNNFYPREAKVQWKVDNALQSGNSQESVTEQDSKDSTYSLSSTLTLSKADYEKHKVYACEVTHQGLSSPVTKSFNRGEC
light 2: EIVLTQSPATLSLSPGERATLSCRASQHVSDAYLAWYQQKPGQAPRLLIYDASDRAEGVPARFSGSGSGTDFTLTISSLEPEDFAVYYCHQYIHLHSFTFGQGTKVEIKRTVAAPSVFIFPPSDRKLKSGTASVVCLLNNFYPREAKVQWKVDNALQSGNSQESVTEQDSKDSTYSLSSTLTLSKADYEKHKVYACEVTHQGLSSPVTKSFNRGEC
B9: 1A5 (antibody, V domains shown)
VH: QEQLVESGGDLVKPEGSLTLTCTASGFSFSTSYWMCWVRQAPGKGLELIACISSSIGVTYYASWAEGRFTISKTSSTTVTLQMTSLTVADTATYFCARTTDDNWNVGFNLWGPGTLVTVSS
VL: AYDMTQTPASVEVGVGGTVTIKCQASQSIGNRYLSWYQQKPGQPPKLLIYGTSTLASGVSSRFKGSGSGTQFTLTISGVESADSATYYCQQGATISYLDNAFGGGTEVVVK
notes: Generated as IgG1 wild type and IgG1 PGLALA with kappa light chain; also called CCL2-0009
B10: 2F6 (antibody, V domains shown)
VH: QSLEESGGGLVQPEGSLTLTCTASGFSFNNNYYMCWVRQAPGKGLEWIGCISTDDSNTHYASWAQGRFTISKASSTALTLQVAGLTVADMATYFCARDAHFTSYGYGFDLWGPGTLVTVSS
VL: DIVMTQTPASVSAAVGGTVSINCRASEDIENLVAWYQQKPGQPPKLLIYQASKLASGVPSRFKGSGSGAEFTLTIGDLESADAATYYCQGDYGSGWIMYSFGGGTDLVVK
notes: Generated as IgG1 wild type and IgG1 PGLALA with kappa light chain; also called CCL2-0014

Assays:
[1] = biological target: T1, human CCL2 (MCP1) - P8A variant (human, UniProt P13500 24-99); assay: SPR Biacore T200, 37 C, antibody captured, CCL2 as analyte, 1:1 model
T1 construct: Entry is without signal peptide; P8A prevents dimer formation (pure monomer); made in-house; also called monomeric human CCL2; monomeric CCL2

[2] = biological target: T2, human CCL2 (MCP1) - wild type (wt) (human, UniProt P13500 24-99); assay: as above
T2 construct: Entry is without signal peptide; Made in-house or bought from R&D Systems (279-MC), depending on the assay; monomer-dimer equilibrium; also called wt human CCL2; hCCL2

[3] = biological target: T2, human CCL2 (MCP1) - wild type (wt); assay: cell-based or functional assay

| Binder | T½ [1] [h] | T½ [2] [h] | IC50, inhibition of THP-1 migration towards recombinant huCCL2 [3] [µg/mL] |
| --- | --- | --- | --- |
| B1 | 8.63 | 0.317 | – |
| B2 | 3.63 | 2.95 | – |
| B3 | 2.9 | 1.67 | – |
| B4 | – | – | 0.2 |
| B5 | – | – | 0.2 |
| B6 | – | – | 0.2 |
| B7 | – | – | 0.2 |
| B8 | – | – | 0.3 |
| B9 | 2.28 | 2.67 | – |
| B10 | 0.783 | 0.867 | – |
